Residues, ends and D or L forms follow the SMILES beside them.
Tests used:
Assay in all cases: Recombinant HDAC µSPOT microarray binding assay;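 on Bottom (dose-response curve fit): peptide spots on cellulose slides incubated with rising HDAC enzyme concentrations, imaged together, four-parameter logistic fit, EC50 is enzyme concentration giving half-maximal binding signal, two experiments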;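 on Bottom (dose-response fit): slides with spotted peptides incubated with six HDAC concentrations in HEPES buffer pH 7.4, spot intensities fitted by four-parameter logistic, EC50 as enzyme concentration giving half-maximal binding signal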;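 on Bottom: relative spot intensity from the six enzyme-concentration slides imaged together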;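 on LogEC50 (M): peptide spots on cellulose slides incubated with rising HDAC enzyme concentrations, imaged together, four-parameter logistic fit, EC50 is enzyme concentration giving half-maximal binding signal, two experiments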;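 on Top (dose-response curve fit): peptide spots on cellulose slides incubated with rising HDAC enzyme concentrations, imaged together, four-parameter logistic fit, EC50 is enzyme concentration giving half-maximal binding signal, two experiments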;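 on Top (dose-response fit): slides with spotted peptides incubated with six HDAC concentrations in HEPES buffer pH 7.4, spot intensities fitted by four-parameter logistic, EC50 as enzyme concentration giving half-maximal binding signal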;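 on Top: relative spot intensity from the six enzyme-concentration slides imaged together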
HDAC8 = molecular target: T1, HDAC8 (Homo sapiens, UniProt Q9BY41); conditions: for Bottom / HillSlope / Top: HDAC8 µSPOT microarray dose-response fit, X = Asuha, sheet Fig. 3 HDAC8; for Bottom: Bottom Value; for HillSlope: HillSlope Value; for Top: Top Value;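 on Bottom: relative spot intensity from the six enzyme-concentration slides imaged together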;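 on Top: relative spot intensity from the six enzyme-concentration slides imaged together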;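 on all read-outs here: peptide µSPOT slides incubated with varying HDAC enzyme concentrations, imaged signal intensity fitted by four-parameter variable-slope regression, EC50 is enzyme concentration giving half-maximal binding, pH 7.4 HEPES buffer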
T1 construct: HDAC8 (full length, C-terminal His tag, BPS Bioscience, cat. #: 50008); purchased BPS Bioscience 50008
T1 sequence (Q9BY41 1-377): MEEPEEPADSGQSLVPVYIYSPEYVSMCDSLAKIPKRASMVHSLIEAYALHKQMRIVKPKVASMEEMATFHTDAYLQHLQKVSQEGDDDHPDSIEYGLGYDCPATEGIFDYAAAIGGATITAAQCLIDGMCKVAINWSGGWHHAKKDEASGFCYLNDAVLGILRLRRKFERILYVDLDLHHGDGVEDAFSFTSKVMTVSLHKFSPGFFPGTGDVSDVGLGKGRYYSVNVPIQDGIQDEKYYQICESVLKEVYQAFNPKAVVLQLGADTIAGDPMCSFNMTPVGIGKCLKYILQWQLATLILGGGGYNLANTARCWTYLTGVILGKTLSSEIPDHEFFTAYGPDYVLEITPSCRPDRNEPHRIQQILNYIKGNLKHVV
Procedure: (§1) Experiments were performed twice, data were obtained with Array Analyze software (Active Motif), and data analysis and representation were performed with the GraphPad Prism 7 software. Outliers were curated manually and data were fitted to nonlinear regression [log(agonist) vs. response—variable slope (four parameters)]. […] Non-sigmoidal curves were denoted as not determined (N.D.) The pEC50 values were determined as the concentration of HDAC enzyme required for half-maximal binding signal.

HDAC2 = molecular target: T2, HDAC2 (Homo sapiens, UniProt Q92769); conditions: for Bottom (Value) / Top (Value) / HillSlope (Value): HDAC2 microarray dose-response curve fit, X = Asuha, sheet Fig. 3 HDAC2; for Bottom (Value): bottom plateau; for Top (Value): top plateau;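 on Top: relative spot intensity from the six enzyme-concentration slides imaged together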;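 on all read-outs here: Cellulose-bound peptide spots on slides incubated with six HDAC enzyme concentrations, binding intensity read, four-parameter variable-slope fit, EC50 is enzyme concentration giving half-maximal binding, in HEPES buffer pH 7.4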
T2 construct: HDAC2 (full length, C-terminal His tag, BPS Bioscience, cat. #: 50002); purchased BPS Bioscience 50002
T2 sequence (Q92769 whole entry): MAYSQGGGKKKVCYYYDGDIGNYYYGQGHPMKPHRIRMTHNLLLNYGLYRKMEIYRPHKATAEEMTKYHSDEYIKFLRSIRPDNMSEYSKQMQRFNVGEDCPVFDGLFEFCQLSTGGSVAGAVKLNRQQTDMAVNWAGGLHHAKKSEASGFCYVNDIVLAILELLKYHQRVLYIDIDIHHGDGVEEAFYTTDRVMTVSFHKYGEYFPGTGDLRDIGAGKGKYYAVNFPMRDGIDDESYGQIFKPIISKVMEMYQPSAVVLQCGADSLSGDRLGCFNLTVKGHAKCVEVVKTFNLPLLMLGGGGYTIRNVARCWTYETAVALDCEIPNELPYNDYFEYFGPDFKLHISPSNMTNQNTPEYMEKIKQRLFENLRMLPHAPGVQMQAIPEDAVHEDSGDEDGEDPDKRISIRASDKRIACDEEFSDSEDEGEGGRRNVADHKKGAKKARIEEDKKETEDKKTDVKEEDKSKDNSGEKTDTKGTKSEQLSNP

HDAC1 = molecular target: T3, HDAC1 (Homo sapiens, UniProt Q13547); conditions: µSPOT microarray; for Bottom (dose-response fit): fitted bottom plateau of the binding curve; for Top (dose-response fit): fitted top plateau of the binding curve;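 on Top: relative spot intensity from the six enzyme-concentration slides imaged together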;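 on all read-outs here: slides with spotted peptides incubated with six HDAC concentrations in HEPES buffer pH 7.4, spot intensities fitted by four-parameter logistic, EC50 as enzyme concentration giving half-maximal binding signal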
T3 construct: HDAC1 (full length, C-terminal His tag, C-terminal FLAG tag, BPS Bioscience, cat. #: 50051); FLAG (C); purchased BPS Bioscience 50051
T3 sequence (Q13547 whole entry): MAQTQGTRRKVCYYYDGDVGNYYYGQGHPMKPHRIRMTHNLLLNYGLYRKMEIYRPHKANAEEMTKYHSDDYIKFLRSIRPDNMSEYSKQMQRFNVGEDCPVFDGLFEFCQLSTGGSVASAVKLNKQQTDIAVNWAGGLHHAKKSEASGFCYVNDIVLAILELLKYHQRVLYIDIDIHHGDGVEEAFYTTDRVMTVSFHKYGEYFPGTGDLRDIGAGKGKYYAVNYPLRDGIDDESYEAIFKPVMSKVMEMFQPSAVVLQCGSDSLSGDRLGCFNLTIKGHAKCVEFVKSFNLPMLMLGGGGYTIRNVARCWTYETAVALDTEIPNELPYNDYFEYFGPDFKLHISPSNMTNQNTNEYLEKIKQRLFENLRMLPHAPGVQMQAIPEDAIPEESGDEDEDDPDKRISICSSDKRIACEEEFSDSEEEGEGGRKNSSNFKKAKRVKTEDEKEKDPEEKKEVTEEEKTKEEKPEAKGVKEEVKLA

HDAC3/NCoR2 = molecular target: T4, HDAC3/NCoR2 (Homo sapiens, UniProt O15379); conditions: for Bottom (dose-response curve fit): fitted bottom plateau of binding signal; for Top (dose-response curve fit): fitted top plateau of binding signal;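 on Top: relative spot intensity from the six enzyme-concentration slides imaged together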;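 on all read-outs here: peptide spots on cellulose slides incubated with rising HDAC enzyme concentrations, imaged together, four-parameter logistic fit, EC50 is enzyme concentration giving half-maximal binding signal, two experiments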
T4 construct: HDAC3/NCoR2 (full length, C-terminal His tag, NCoR2 N-terminal GST tag); purchased BPS Bioscience 50003
T4 sequence (O15379 whole entry): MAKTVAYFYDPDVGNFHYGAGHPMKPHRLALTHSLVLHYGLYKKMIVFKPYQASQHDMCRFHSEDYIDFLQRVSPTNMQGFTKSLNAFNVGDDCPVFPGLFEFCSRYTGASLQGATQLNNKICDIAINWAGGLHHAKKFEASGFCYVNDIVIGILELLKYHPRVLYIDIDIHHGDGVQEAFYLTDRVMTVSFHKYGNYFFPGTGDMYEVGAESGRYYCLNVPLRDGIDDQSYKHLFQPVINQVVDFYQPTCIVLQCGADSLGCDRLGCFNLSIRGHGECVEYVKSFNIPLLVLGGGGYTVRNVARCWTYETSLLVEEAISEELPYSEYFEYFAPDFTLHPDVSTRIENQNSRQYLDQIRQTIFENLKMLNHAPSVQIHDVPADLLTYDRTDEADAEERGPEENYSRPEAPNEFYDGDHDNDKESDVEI
T4 sequence (Q9Y618 389-480 partner limits assumed): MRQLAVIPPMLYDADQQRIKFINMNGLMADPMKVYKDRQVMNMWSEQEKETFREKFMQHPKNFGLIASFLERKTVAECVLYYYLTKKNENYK
Procedure: as §1

[1] = recombinant HDAC1, Fig. 3, X = Asuha, Hill slope of the binding curve
[2] = recombinant HDAC1, Fig. 3, X = Asuha
[3] = HDAC3 µSPOT microarray, Fig. 3, Hill slope of dose-response fit, X = Asuha
[4] = HDAC3 µSPOT microarray, Fig. 3, X = Asuha
[5] = dose-response fit parameter, µSPOT microarray, H4 K12X (X = Asuha) peptides, HDAC2
[6] = dose-response fit parameter, H4 K12X (X = Asuha) peptides, HDAC1
[7] = dose-response fit parameter, µSPOT microarray, H4 K12X (X = Asuha) peptides, HDAC3

| Compound | Bottom (HDAC8) | HillSlope (HDAC8) | Top (HDAC8) | Bottom (Value) (HDAC2) | Top (Value) (HDAC2) | HillSlope (Value) (HDAC2) | HillSlope (HDAC1; [1]) | Bottom (dose-response fit) (HDAC1; [2]) | Top (dose-response fit) (HDAC1; [2]) | HillSlope (HDAC3/NCoR2; [3]) | Bottom (dose-response curve fit) (HDAC3/NCoR2; [4]) | Top (dose-response curve fit) (HDAC3/NCoR2; [4]) | other results |
| --- | --- | --- | --- | --- | --- | --- | --- | --- | --- | --- | --- | --- | --- |
| H2A 100-115 (VTIAQGGVLPNIQAVL; UniProt P0C0S8 101-116, looked up, fragment) | 0.02 | 0.63 | 7.44 | 0.02 | 9.23 | 0.88 | 1.46 | 0.02 | 0.26 | 1.35 | 0 | 0.72 |  |
| P12 (KGLGXGGA; K12 replaced by Asuha (X)) |  |  |  |  |  |  |  |  |  |  |  |  | HillSlope (Value) (HDAC8; Hill slope of the µSPOT microarray dose-response fit, X = Asuha peptides): 1.3; Bottom (Value) (HDAC8; fitted bottom of the µSPOT microarray dose-response curve, X = Asuha peptides): 0.02; Top (Value) (HDAC8; fitted top of the µSPOT microarray dose-response curve, X = Asuha peptides): 0.58; Bottom (HDAC2; [5]): 0.02; HillSlope (HDAC2; [5]): 7.89; Top (HDAC2; [5]): 0.14; Bottom (HDAC1; [6]): 0.01; HillSlope (HDAC1; [6]): 0.67; Top (HDAC1; [6]): 0.47; Bottom (HDAC3/NCoR2; [7]): 0.04; HillSlope (HDAC3/NCoR2; [7]): 2.48; Top (HDAC3/NCoR2; [7]): 0.98; LogEC50 (M) (HDAC3/NCoR2; log of EC50 in M, dose-response fit, µSPOT microarray, H4 K12X (X = Asuha) peptides, HDAC3): -8.71 M |
| H2A 37-52 (GNYSERVGAGAPVYLA; UniProt P04908 38-53, looked up, fragment) | 0.01 | 7.44 | 0.07 | 0.01 | 3.9 | 0.79 | 0.92 | 0.01 | 6.54 | 0.78 | 0 | 0.79 |  |
| H2A 46-61 (GAPVYLAAVLEYLTAE; UniProt P0C0S8 47-62, looked up, fragment) | 0.02 | 0.58 | 21.03 | 0.01 | 27.24 | 0.62 | 1.25 | 0.02 | 0.24 | 1.43 | 0.01 | 0.51 |  |
| H2A 55-70 (LEYLTAEILELAGNAA; UniProt P0C0S8 56-71, looked up, fragment) | 0.02 | 0.59 | 3.05 | 0.01 | 2.34 | 0.64 | 1.43 | 0.02 | 0.27 | 1.26 | 0 | 0.64 |  |
| H2B 58-73 (AMGIMNSFVNDIFERI; UniProt P06899 59-74, looked up, fragment) | 0.01 | 0.19 | 6.07 | 0.03 | 0.16 | 2.23 | 0.92 | 0.02 | 1.87 | 1.96 | 0.02 | 0.22 |  |
| H2B 91-106 (SREIQTAVRLLLPGEL; UniProt P62807 92-107, looked up, fragment) | 0.04 | 6.48 | 0.09 | 0.03 | 44.03 | 0.48 | 1.35 | 0.04 | 1.07 | 1.45 | 0.01 | 0.55 |  |
| H2B 67-82 (NDIFERIAGEASRLAH; UniProt P06899 68-83, looked up, fragment) | 0.03 | 0.69 | 4.21 | 0.02 | 6.33 | 0.44 | 1.51 | 0.04 | 1.04 | 1.68 | 0.01 | 0.39 |  |
| CC[C@H](C)[C@H](NC(=O)[C@H](C)NC(=O)[C@H](CC(C)C)NC(=O)[C@H](CCC(N)=O)NC(=O)[C@H](CC(C)C)NC(=O)[C@H](Cc1c[nH]cn1)NC(=O)[C@H](CCCNC(=N)N)NC(=O)[C@@H]1CCCN1C(=O)[C@@H](NC(=O)[C@@H](NC(=O)[C@H](CCCNC(=N)N)NC(=O)[C@@H](NC(C)=O)[C@@H](C)O)[C@@H](C)CC)[C@@H](C)CC)C(=O)N[C@@H](CCCNC(=N)N)C(=O)N[C@@H](CC(N)=O)C(=O)N[C@@H](CC(=O)O)C(=O)N[C@@H](CCC(=O)O)C(N)=O [H2A 76-91] (Ac-TRIIPRHLQLAIRNDE-NH2) | 0.03 | 7.33 | 0.15 | 0.03 | 73.18 | 0.93 | 0.92 | 0.02 | 2.64 | 1.12 | 0.01 | 1.3 |  |
| H2A 19-34 (SRAGLQFPVGRVHRLL; UniProt P04908 20-35, looked up, fragment) | 0.05 | 8.22 | 0.14 | 0.04 | 76.12 | 0.81 | 0.75 | 0.02 | 2.31 | 1.37 | 0.02 | 0.67 |  |
